Results published in the supplement of paper PMC6757056.
± gives the standard deviation of the averaged measurements.

B1: library; a variant is named by its letters at N, in order (parent)
chain: GCUGUCACCGGUGUAUUACCCUAGUGGUCGACCGGUCUGAUGAGUCUNNNNNNAGACGAAACAGC

Tests used:
hypoxanthine [1] = variants of: B1; test: FACS-Seq fitted mean relative fluorescence mCherry/BFP without ligand (log10 relative fluorescence); ligand: hypoxanthine (xanthine aptamer); higher = higher reporter protein expression; details: HEK293T, ligand present: no
How it was run: (§1)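 After lentiviral transduction, HEK293T library cells bearing an mCherry ribozyme-switch reporter and an EF1α-BFP marker were enriched. They were then held for 48 h with or without ligand and sorted by mCherry/BFP into 6 bins, and each bin's genomic DNA was PCR-amplified, barcoded and MiSeq-sequenced. Fluorescence is expressed as a normalized fitted mean: the normal mean of log10(mCherry/BFP) bin counts, scaled to five spiked-in control ribozymes.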

hypoxanthine [2] = variants of: B1; test: normalized RNA/DNA level with ligand (relative to sTRSVctl = 100) (log10 (% of sTRSVctl)); ligand: hypoxanthine (xanthine aptamer); higher = less ribozyme self-cleavage, higher mRNA level; details: ligand concentration (+) RNA-Seq: 5 mM, HEK293T, reporter: mCherry (pCS4076), ligand present: yes
How it was run: (§2)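 Only sequences with at least 100 DNA reads were analyzed, from HEK293T cells transfected with 4 µg per 6-well well of ribozyme switch library plasmids 72 h before RNA extraction with EDTA. Any ligand was added 1 h before transfection. RNA level was defined as RNA over DNA reads, normalized to a spiked-in non-cleaving sequence or to the top sequences, then scaled and log-transformed. The top set was 25 sequences, and the scaling was ×100 followed by log10.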

hypoxanthine [3] = variants of: B1; test: normalized RNA/DNA level without ligand (relative to sTRSVctl = 100) (log10 (% of sTRSVctl)); ligand: hypoxanthine (xanthine aptamer); higher = less ribozyme self-cleavage, higher mRNA level; details: HEK293T, reporter: mCherry (pCS4076), ligand present: no
How it was run: as §2

hypoxanthine [4] = variants of: B1; test: FACS-Seq fitted mean relative fluorescence mCherry/BFP with ligand (log10 relative fluorescence); ligand: hypoxanthine (xanthine aptamer); ligand concentration (+) FACS-Seq: 5 mM; higher = higher reporter protein expression; details: HEK293T, ligand present: yes
How it was run: as §1

Row | Variant | FACS-Seq fitted mean (log10) (hypoxanthine [1]) | normalized RNA/DNA level with ligand (log10) (hypoxanthine [2]) | normalized RNA/DNA level without ligand (log10) (hypoxanthine [3]) | FACS-Seq fitted mean (log10) (hypoxanthine [4])
1 | CGUUUC | 0.944 ± 0.041 | 1.95 ± 0.058 | 1.908 ± 0.0084 | 0.812 ± 0.15
2 | AGGUCG | 0.151 ± 0.023 | 1.861 ± 0.0041 | 1.53 ± 0.092 | 0.463 ± 0.049
3 | AGGUCA | 0.881 ± 0.045 | 1.94 ± 0.071 | 1.68 ± 0.052 | 0.729 ± 0.035
4 | GGGUAG | -0.254 ± 0.0079 | 1.74 ± 0.03 | 1.44 ± 0.079 | 0.395 ± 0.063
5 | GGGUAC | 0.1586 ± 0.00038 | 1.93 ± 0.06 | 1.68 ± 0.037 | 0.529 ± 0.049
6 | GGGUAU | 0.137 ± 0.2 | 1.94 ± 0.053 | 1.71 ± 0.047 | 0.374 ± 0.03
7 | GGGUAA | 0.396 ± 0.048 | 1.884 ± 0.0098 | 1.71 ± 0.045 | 0.6223 ± 0.0027
8 | UUAAAA | 0.501 ± 0.012 | 1.966 ± 0.016 | 1.795 ± 0.0061 | 0.388 ± 0.15
9 | GGUCUA | 0.4701 ± 0.0031 | 1.896 ± 0.0023 | 1.9 ± 0.022 | 0.586 ± 0.022
10 | UGUGAC | 0.481 ± 0.0063 | 1.94 ± 0.022 | 1.839 ± 0.0072 | 0.42 ± 0.077
11 | UGUGCG | -0.404 ± 0.074 | 1.933 ± 0.015 | 1.684 ± 0.014 | 0.178 ± 0.0062
12 | CGGGCU | 0.773 ± 0.061 | 1.946 ± 0.019 | 1.954 ± 0.0037 | 0.578 ± 0.023
13 | CGUAUA | 0.422 ± 0.015 | 1.91 ± 0.025 | 1.641 ± 0.007 | 0.566 ± 0.016
14 | GGUCAC | 0.222 ± 0.021 | 1.91 ± 0.05 | 1.825 ± 0.0063 | 0.633 ± 0.0098
15 | UGUGUG | 0.266 ± 0.078 | 1.93 ± 0.058 | 1.676 ± 0.0071 | 0.333 ± 0.086
16 | UGUAAG | 0.327 ± 0.084 | 1.9 ± 0.033 | 1.67 ± 0.063 | 0.586 ± 0.075
17 | AGGGGC | 0.795 ± 0.067 | 1.95 ± 0.047 | 1.86 ± 0.079 | 0.741 ± 0.049
18 | AGGGGG | 0.363 ± 0.12 | 1.88 ± 0.034 | 1.53 ± 0.07 | 0.631 ± 0.028
